How the values were obtained:
[1] = molecular target: Biotin-DB21 (biotinylated Avi-DB21); test: AlphaScreen or HTRF; competition without CBD: 200 nM His-CA14 on acceptor beads, 67 nM biotinylated DB21 (wild type or mutant) on streptavidin donor beads, label-free protein titrated; 25 mM HEPES pH 7.4, 100 mM NaCl, no TCEP, 0.1% Tween-20, 0.05 mg/mL BSA
[2] = molecular target: Biotin-DB21 (biotinylated Avi-DB21); test: BLI; biotinylated DB21 on streptavidin probe, tag-free CA14 as analyte, no CBD; 30 °C; 25 mM HEPES pH 7.4, 100 mM NaCl, no TCEP, 0.1% Tween-20, 0.05 mg/mL BSA; kinetic and steady-state analysis differ

B1: CA14 anchor binder nanobody, tag-free (VHH)
VHH: EVQLQASGGGFVQPGGSLRLSCAASGSTSRQYDMGWFRQAPGKEREFVSAISSNQDQPPYYADSVKGRFTISRDNSKNTVYLQMNSLRAEDTATYYCAFKQHHANGAYWGQGTQVTVSS
Q: Which results are given for B1?
A: IC50 [1]: 20 µM; Kd [2]: 19 µM; Kd determined by kinetics [2]: 3 µM
